Molecular target: the molecule itself
Assay: dynamic light scattering; 5–83 µM GLP-1(7-37); 25 °C; 25 mM Tris-HCl, 140 mM NaCl, 4.9 mM KCl, 2.5 mM CaCl2, 1 mM MgCl2, pH 7.4; degree of multimerization MWRh/MWm

B1: glucagon-like peptide 1, residues 7-37 (peptide, UniProt P01275 98-128, looked up)
chain: HAEGTFTSDVSSYLEGQAAKEFIAWLVKGRG
notes: also called GLP-1(7-37); GLP-1
Q: B1 was tested. Which “stoichiometry N” value did it give?
A: The value was over 210.

From paper PMC12071944, “Interaction Between Glucagon-like Peptide 1 and Its Analogs with Amyloid-β Peptide Affects Its Fibrillation and Cytotoxicity” (International Journal of Molecular Sciences, 2025)
